From patent publication CN113214400A (FUKANG SHANGHAI HEALTH TECH CO LTD, dated 2021)

What was measured:
[1] = biological target: T1, 人PD-L1 (全长, 表达于CHO-K1细胞 WBP315.CHO-K1.hPro1.C11) (human, UniProt Q9NZQ7 19-290); experiment: flow cytometry on CHO-K1 cells expressing human PD-L1
T1 construct: whole, on cells; also called human PD-L1; hPD-L1

[2] = biological target: T2, 小鼠PD-L1 (全长, 表达于293F细胞 WBP315.293F.mPro1.C1) (mouse, UniProt Q9EP73 19-290); experiment: flow cytometry on 293F cells expressing mouse PD-L1
T2 construct: whole, on cells; also called mouse PD-L1
T2 sequence (Q9EP73 19-290): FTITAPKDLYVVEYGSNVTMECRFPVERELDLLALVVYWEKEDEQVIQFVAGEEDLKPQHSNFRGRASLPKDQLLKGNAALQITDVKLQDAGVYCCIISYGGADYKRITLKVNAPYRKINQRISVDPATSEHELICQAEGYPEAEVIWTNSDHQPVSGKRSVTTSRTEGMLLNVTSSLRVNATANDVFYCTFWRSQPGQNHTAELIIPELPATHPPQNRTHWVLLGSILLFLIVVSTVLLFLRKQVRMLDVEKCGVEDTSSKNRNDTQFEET

T1 sequence (Q9NZQ7 19-290): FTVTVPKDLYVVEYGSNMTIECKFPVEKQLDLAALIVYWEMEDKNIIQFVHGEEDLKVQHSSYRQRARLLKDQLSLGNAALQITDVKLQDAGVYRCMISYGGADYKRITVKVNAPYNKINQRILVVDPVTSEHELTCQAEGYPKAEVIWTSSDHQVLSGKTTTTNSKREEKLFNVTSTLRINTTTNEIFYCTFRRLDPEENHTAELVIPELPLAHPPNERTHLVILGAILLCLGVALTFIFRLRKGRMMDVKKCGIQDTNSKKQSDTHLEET

binding result [1]: binds
binding result [2]: binds
B1: W3156-AP3R2-1A3-z12-hIgG1 (Fc fusion)
chain: EVQLVESGGGLVQPGGSLRLSCAASGHFSNLAVNWFRQAPGKERELVAGILWSGGSTFYADSVKGRFTISRGNAENMLYLQMNSLRAEDTAVYYCNTGTNWGQGTLVTVSS
notes: tested as hIgG1 format; also called 抗PD-L1 VHH抗体; 亲本抗体 (PD-L1 arm); not shown: hIgG1 part (hinge/Fc) of the VHH-hIgG1 format
